According to patent US20260028424A1 (GRANULAR THERAPEUTICS, published 2026):

T1: biotinylated human CD203c (bio-huCD203c, Acro, Cat. nr. H52H4) (human, UniProt O14638 49-875, limits assumed, biotinylated (site not stated))
T1 construct: Captured on a Biotin CAPture chip for SPR
T1 sequence (looked up): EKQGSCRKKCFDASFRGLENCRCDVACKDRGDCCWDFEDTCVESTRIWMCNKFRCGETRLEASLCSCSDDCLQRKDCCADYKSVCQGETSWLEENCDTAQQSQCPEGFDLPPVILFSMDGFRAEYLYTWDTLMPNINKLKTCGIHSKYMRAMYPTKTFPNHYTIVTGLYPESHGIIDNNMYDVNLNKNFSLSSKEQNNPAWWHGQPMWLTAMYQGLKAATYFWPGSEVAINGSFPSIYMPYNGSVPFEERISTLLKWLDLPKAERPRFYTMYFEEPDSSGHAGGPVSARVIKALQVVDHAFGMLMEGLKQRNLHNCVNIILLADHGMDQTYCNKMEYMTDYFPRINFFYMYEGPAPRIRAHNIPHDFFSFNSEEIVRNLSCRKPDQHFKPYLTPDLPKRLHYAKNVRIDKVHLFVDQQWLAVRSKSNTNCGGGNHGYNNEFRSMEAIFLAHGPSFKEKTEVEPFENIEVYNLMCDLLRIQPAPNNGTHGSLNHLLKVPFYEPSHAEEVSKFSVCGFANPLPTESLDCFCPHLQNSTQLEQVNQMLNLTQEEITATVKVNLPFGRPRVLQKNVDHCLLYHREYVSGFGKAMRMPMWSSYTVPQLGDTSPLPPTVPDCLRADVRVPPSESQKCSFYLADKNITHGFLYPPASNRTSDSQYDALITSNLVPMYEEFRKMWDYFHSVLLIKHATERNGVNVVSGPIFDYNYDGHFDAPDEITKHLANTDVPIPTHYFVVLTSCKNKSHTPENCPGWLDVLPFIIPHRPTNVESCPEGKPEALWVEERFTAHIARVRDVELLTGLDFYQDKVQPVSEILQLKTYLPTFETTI

T2: biotinylated cynomolgus CD203c (bio-cyCD203c, Icosagen) (cynomolgus monkey, UniProt A0A2K5TKP4 31-874, biotinylated (site not stated))
T2 construct: Captured on a Biotin CAPture chip for SPR; also called cyno CD203c
T2 sequence: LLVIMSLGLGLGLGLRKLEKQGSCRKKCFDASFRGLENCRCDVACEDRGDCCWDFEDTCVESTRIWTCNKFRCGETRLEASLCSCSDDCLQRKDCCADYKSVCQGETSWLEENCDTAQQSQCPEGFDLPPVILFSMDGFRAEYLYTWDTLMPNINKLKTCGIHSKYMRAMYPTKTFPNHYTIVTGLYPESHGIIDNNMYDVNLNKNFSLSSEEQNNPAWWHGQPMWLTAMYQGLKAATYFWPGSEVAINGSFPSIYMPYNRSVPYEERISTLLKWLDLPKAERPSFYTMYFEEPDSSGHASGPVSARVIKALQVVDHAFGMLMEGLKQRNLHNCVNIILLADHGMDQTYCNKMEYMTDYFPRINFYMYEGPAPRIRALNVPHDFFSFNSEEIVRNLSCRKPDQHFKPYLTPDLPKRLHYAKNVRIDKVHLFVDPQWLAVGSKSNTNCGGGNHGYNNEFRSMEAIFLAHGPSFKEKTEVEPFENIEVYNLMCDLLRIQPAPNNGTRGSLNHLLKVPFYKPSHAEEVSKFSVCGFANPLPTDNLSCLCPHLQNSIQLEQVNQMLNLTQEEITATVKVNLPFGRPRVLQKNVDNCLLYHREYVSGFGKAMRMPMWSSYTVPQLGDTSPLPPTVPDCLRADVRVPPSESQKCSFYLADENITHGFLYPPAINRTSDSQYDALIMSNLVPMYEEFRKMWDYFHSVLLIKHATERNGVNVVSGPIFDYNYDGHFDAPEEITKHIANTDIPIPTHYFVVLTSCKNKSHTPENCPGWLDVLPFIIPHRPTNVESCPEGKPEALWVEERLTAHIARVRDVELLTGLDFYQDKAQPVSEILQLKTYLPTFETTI

T3: human CD203c expressed on the surface of KU812 cells (human, UniProt O14638 1-875)
T3 construct: whole, on cells; also called cell-surface CD203c; cell surface CD203c on KU812 cells
T3 sequence (looked up): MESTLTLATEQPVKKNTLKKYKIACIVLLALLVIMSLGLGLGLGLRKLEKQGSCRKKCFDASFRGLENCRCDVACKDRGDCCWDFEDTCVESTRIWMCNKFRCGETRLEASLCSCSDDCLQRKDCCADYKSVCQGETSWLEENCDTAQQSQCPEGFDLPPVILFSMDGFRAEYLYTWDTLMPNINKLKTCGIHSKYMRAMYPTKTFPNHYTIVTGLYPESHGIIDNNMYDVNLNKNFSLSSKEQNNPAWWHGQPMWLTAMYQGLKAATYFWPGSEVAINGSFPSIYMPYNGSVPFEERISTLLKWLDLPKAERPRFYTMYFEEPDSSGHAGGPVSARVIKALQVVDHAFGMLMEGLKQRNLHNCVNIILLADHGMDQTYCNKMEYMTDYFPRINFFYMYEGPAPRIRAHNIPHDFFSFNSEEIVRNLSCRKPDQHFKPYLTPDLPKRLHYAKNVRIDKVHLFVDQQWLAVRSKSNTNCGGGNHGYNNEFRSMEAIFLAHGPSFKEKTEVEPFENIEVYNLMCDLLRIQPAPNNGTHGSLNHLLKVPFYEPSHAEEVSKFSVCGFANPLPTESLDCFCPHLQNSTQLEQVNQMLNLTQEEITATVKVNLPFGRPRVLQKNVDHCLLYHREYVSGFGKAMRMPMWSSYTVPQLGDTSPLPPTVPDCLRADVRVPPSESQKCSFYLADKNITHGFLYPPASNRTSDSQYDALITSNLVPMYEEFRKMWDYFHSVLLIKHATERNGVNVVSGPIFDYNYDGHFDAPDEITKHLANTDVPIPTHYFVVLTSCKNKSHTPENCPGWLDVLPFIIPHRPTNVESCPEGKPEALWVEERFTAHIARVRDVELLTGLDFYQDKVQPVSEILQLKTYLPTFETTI


Legend:
c-Kit on KU812 cells [1] = biological target: T4, c-Kit on KU812 cells (UniProt P10721 26-976, limits assumed); experiment: flow cytometry on KU812 cells, which carry both c-Kit and CD203c (median fluorescence intensity); signal not separated by target
T4 construct: whole, on cells; also called c-Kit receptor; CD117
Description: (§1) All treatments were performed on cells seeded in T75 flasks at a seeding density of 0.3e6/ml. Cells were cultured in the presence of 80 ng/ml of SCF and treated with 20 ng/ml of IL3 24 hours prior to antibody staining. Following SCF/IL3 treatment, cells were harvested and stained with live dead stain (Zombie UV Biolegend 423108). Cells were then stained with a titration of anti-CD203c antibodies/bispecifics or respective isotype controls in a 5-fold dilution series starting at 50 μg/mL and detected with Anti human-Fc AF647 antibody (JIR 109-605-098). Samples were subsequently run on a Yeti analyzer, gating on 10K live cells. Subsequent analysis was performed using FlowJo software and data represented as MFI (median fluorescent intensity).

cyno c-Kit (SPR) = cyno c-Kit (SPR) (cyno, UniProt F6V858 26-520 (rhesus entry)); experiment: SPR, single-cycle kinetics, Cynomolgus C-kit
human c-Kit (SPR) = human c-Kit (SPR) (human, UniProt P10721 26-520, limits assumed); experiment: SPR, single-cycle kinetics, Human C-kit
[2] = biological target: T1, biotinylated human CD203c …; experiment: SPR, single-cycle protocol, Bio-huCD203c; table gives Rmax, Chi2 and KD only
[3] = biological target: T2, biotinylated cynomolgus CD203c …; experiment: SPR, single-cycle protocol, Bio-cyCD203c; table gives Rmax, Chi2 and KD only
[4] = biological target: T3, human CD203c expressed on the surface …; experiment: flow cytometry on KU812 cells, which carry both c-Kit and CD203c (median fluorescence intensity); signal not separated by target
Description: as §1

c-Kit on KU812 cells [5] = biological target: T4, c-Kit on KU812 cells; experiment: flow cytometry on KU812 cells, which carry both c-Kit and CD203c (median fluorescence intensity); signal not separated by target; no unit follows the number, the axis is in nM and the dotted line stands at about 0.2
Description: as §1

[6] = biological target: T3, human CD203c expressed on the surface …; experiment: as above
Description: as §1

Sequence of human c-Kit (SPR) (P10721 26-520 limits assumed): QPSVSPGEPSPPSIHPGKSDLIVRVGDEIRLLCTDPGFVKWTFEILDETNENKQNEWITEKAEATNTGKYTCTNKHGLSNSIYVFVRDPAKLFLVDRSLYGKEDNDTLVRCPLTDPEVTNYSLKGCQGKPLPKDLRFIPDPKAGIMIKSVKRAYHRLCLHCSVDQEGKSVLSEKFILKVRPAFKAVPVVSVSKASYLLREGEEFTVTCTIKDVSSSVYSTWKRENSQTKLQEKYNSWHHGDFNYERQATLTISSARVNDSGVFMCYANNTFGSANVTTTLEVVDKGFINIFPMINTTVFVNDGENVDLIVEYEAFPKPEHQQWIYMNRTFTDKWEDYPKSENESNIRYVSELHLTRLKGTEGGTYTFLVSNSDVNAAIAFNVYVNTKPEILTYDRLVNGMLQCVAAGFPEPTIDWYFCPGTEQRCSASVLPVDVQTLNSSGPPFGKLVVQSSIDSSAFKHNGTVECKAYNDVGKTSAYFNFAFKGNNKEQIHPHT
T4 sequence (P10721 26-976 limits assumed): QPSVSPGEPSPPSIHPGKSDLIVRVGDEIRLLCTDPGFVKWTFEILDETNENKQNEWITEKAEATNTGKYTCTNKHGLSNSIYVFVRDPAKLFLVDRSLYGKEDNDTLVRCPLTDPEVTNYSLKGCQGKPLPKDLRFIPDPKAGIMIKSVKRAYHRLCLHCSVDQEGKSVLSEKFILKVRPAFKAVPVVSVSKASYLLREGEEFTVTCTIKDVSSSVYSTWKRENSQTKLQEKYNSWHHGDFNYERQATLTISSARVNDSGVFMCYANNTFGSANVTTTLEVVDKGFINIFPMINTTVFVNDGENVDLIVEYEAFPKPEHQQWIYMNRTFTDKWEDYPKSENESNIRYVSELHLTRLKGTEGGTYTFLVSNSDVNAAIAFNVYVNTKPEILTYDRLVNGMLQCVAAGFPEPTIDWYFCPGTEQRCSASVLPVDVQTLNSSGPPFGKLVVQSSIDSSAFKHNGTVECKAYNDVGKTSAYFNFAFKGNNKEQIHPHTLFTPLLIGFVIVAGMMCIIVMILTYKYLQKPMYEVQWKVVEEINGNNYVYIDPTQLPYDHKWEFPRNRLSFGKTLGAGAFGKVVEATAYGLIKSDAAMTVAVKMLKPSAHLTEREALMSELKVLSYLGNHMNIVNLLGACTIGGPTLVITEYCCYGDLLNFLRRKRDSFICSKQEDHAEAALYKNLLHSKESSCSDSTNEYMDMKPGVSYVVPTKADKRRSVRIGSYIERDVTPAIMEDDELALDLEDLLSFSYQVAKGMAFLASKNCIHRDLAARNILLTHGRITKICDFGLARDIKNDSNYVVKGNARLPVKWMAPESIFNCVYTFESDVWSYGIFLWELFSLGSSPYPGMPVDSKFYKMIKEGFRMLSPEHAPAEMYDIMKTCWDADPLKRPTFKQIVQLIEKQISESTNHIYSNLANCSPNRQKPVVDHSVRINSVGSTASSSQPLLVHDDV
Sequence of cyno c-Kit (SPR) (chain, as listed by the source): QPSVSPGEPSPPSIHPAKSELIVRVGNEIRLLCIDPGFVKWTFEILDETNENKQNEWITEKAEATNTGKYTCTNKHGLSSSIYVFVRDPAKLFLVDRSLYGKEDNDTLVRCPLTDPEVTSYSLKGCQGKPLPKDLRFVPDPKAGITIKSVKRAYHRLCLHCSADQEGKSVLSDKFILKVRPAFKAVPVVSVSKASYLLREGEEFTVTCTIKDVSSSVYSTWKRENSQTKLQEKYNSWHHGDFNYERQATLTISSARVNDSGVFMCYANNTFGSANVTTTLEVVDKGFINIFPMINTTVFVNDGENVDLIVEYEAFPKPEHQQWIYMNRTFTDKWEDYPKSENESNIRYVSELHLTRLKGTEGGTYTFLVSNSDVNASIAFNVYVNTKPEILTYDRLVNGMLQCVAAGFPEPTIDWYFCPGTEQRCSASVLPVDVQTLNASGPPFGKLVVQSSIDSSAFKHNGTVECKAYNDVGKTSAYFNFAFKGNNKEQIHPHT

Row | Binder | EC50 (c-Kit on KU812 cells [1]) [nM] | Kd (cyno c-Kit (SPR)) [nM] | koff (cyno c-Kit (SPR)) [s⁻¹] | kon (cyno c-Kit (SPR)) [M⁻¹ s⁻¹] | Kd (human c-Kit (SPR)) [nM] | koff (human c-Kit (SPR)) [s⁻¹] | kon (human c-Kit (SPR)) [M⁻¹ s⁻¹] | Kd [2] [nM] | Kd [3] [nM] | EC50 [4] [nM] | EC50 (c-Kit on KU812 cells [5]) [nM] | EC50 [6] [nM]
1 | MH1/F6.12 bispecific (parental, before pI engineering) (bispecific antibody, V domains shown, Knob-in-hole IgG1null bispecific with human Ckappa; also called parental bispecific MH1/F6.12) VH 1: QVQLVQSGAEVKKPGASVKVSCKASGYTFTDYYMNWVRQAPGQGLEWMGRIYPGSGNTYYAQKFQGRVTMTRDTSTSTVYMELSSLRSEDTAVYYCARGVYYYDYWGQGTLVTVSS VH 2: EVQLVQSGAEVKKPGESLKISCKGSGYRFASNWIGWVRQMPGKGLEWMGEIYPGDSNTRYSPSFQGQVTISADKSISTAYLQWSSLKASDTAMYYCARKDYYYGIMDVWGQGTTVTVSS VL: DIQMTQSPSSLSASVGDRVTITCRASQGIRTNLAWFQQKPGKAPKSLIYAASSLQSGVPSRFSGSGSGTDFTLTISSLQPEDFATYYCQQYNSYPRTFGGGTKVEIK | 0.548 | 52.7 | 0.0159 | 301000 | 45.1 | 0.00978 | 217000 |  |  |  |  | 
2 | FJ2156_MH1_A x F6_12B huIgG1 KIH (bispecific antibody, V domains shown, also called MH1_A/F6.12_B) VH 1: EVQLVQSGAEVKKPGASVKVSCKASGYTFTDYYMNWVRQAPGQGLEWMGRIYPGSGNTYYAQKFQDRVTMTRDTSTSTVYMELSSLRSEDTAVYYCARGVYYYDYWGQGTLVTVSS VH 2: QVQLVQSGAEVKKPGESLKISCKGSGYRFASNWIGWVRQMPGKGLQWMGEIYPGDSNTRYSPSFQGQVTISADKSISTAYLQWSSLKASDTAMYYCARKDYYYGIMDVWGQGTTVTVSS VL: DIQMTQSPSSLSASVGDRVTITCRASQGIRTNLAWFQQKPGKAPKSLIYAASSLQSGVPSRFSGSGSGTDFTLTISSLQPEDFATYYCQQYNSYPRTFGGGTKVEIK |  | 95.5 | 0.0277 | 291000 | 82.7 | 0.0166 | 201000 | 98.5 | 68.2 |  |  | 
3 | FJ2156_MH1_A x F6_12C huIgG1 KIH (bispecific antibody, V domains shown, also called MH1_A/F6.12_C) VH 1: EVQLVQSGAEVKKPGASVKVSCKASGYTFTDYYMNWVRQAPGQGLEWMGRIYPGSGNTYYAQKFQDRVTMTRDTSTSTVYMELSSLRSEDTAVYYCARGVYYYDYWGQGTLVTVSS VH 2: QVQLVQSGAEVKKPGESLKISCKGSGYRFASNWIGWVRQMPGKGLEWMGEIYPGDSNTRYRPSFQGQVTISADKSISTAYLQWSSLKASDTAMYYCARKDYYYGIMDVWGQGTTVTVSS VL: DIQMTQSPSSLSASVGDRVTITCRASQGIRTNLAWFQQKPGKAPKSLIYAASSLQSGVPSRFSGSGSGTDFTLTISSLQPEDFATYYCQQYNSYPRTFGGGTKVEIK |  | 91.3 | 0.0272 | 297000 | 86.1 | 0.0171 | 199000 | 84.8 | 51.8 |  |  | 
4 | FJ2156_MH1_C x F6_12B huIgG1 KIH (bispecific antibody, V domains shown, also called MH1_C/F6.12_B) VH 1: QVQLVQSGAEVKEPGASVKVSCKASGYTFTDYYMNWVRQAPGQGLEWMGRIYPGSGNTYYAQNFQGRVTMTRDTSTSTVYMELSSLRSEDTAVYYCARGVYYYDYWGQGTLVTVSS VH 2: QVQLVQSGAEVKKPGESLKISCKGSGYRFASNWIGWVRQMPGKGLQWMGEIYPGDSNTRYSPSFQGQVTISADKSISTAYLQWSSLKASDTAMYYCARKDYYYGIMDVWGQGTTVTVSS VL: DIQMTQSPSSLSASVGDRVTITCRASQGIRTNLAWFQQKPGKAPKSLIYAASSLQSGVPSRFSGSGSGTDFTLTISSLQPEDFATYYCQQYNSYPRTFGGGTKVEIK | 0.238 | 52.4 | 0.0155 | 295000 | 44.5 | 0.00949 | 213000 | 108 | 75.8 | 0.238 |  | 
5 | MH1_C/F6.12_D bispecific (pI-engineered) (bispecific antibody, V domains shown, Knob-in-hole IgG1null bispecific with human Ckappa) VH 1: QVQLVQSGAEVKEPGASVKVSCKASGYTFTDYYMNWVRQAPGQGLEWMGRIYPGSGNTYYAQNFQGRVTMTRDTSTSTVYMELSSLRSEDTAVYYCARGVYYYDYWGQGTLVTVSS VH 2: QVQLVQSGAEVKKPGESLKISCKGSGYRFASNWIGWVRQMPGKGLEWMGEIYPGDSNTRYSPSFQGQVTISADKSISTAYLQWSRLKASDTAMYYCARKDYYYGIMDVWGQGTTVTVSS VL: DIQMTQSPSSLSASVGDRVTITCRASQGIRTNLAWFQQKPGKAPKSLIYAASSLQSGVPSRFSGSGSGTDFTLTISSLQPEDFATYYCQQYNSYPRTFGGGTKVEIK |  | 52.3 | 0.0152 | 291000 | 43 | 0.00919 | 214000 | 79.2 | 63.1 |  | 0.214 | 0.214
